Test [1] addresses T1, human ILT4 expressed on cells (human, UniProt Q8N423 22-597). The test can be described thus: cell-based or functional assay.
The target in test [2] is T2, recombinant human ILT4 (LILRB2) (human, UniProt Q8N423 22-460).
T2 construct: Bought protein (Acro Biosystems or R&D Systems); also called ILTR4
The test can be described thus: SPR, Biacore T200, mAb captured on anti-Fc, ILT4 injected, medium resolution, 25 C. The method, then:
(§1) Label-free SPR analysis on a Biacore T200 instrument was utilized to measure antibody affinity to ILT4. CM4 sensor chips from Cytiva Inc. were utilized for all medium resolution analyses. Either anti-mouse Fc specific or anti-human Fc specific capture surfaces were prepared using standard amine coupling chemistry. Mouse, Chimera or Humanized mAbs were captured to their respective surfaces and ILT4 was injected across the surfaces from 101 nM to 0.79 nM in a 2-fold serial dilution series at a flow rate of 100 μL/min. The association phase was followed for 90 sec. while the dissociation phase was followed for 1200 sec. due to the medium resolution analysis implemented here. The sensorgrams were double-referenced and fit globally to a 1:1 interaction model with a term included for mass transport, and the equilibrium dissociation constant was calculated as KD=koff/kₒₙ. […] All kinetic experiments were performed at 25° C. in a buffer consisting of Hepes-buffered saline, pH 7.4, with 0.05% polysorbate 20 (HBS-P+) and 100 μg/ml Bovine Serum Albumin (BSA).
A general note: In SPR one partner is held on a chip, and binding of the other changes the refractive index at the surface.

Test [3] concerns the target T1, human ILT4 expressed on cells. The test can be described thus: flow cytometry, blockade of PE-HLA-G tetramer binding to CHO-S/ILT4 cells, experiment 2. The method, then:
(§2) In the second blocking experiment, the primary antibody dilutions were made by diluting antibody to 15 μg/ml in FACS buffer. Three independent sets of eleven 2.5-fold serial dilutions were then made in FACS buffer from 15 μg/ml to 0.002 μg/ml. Each dilution set was handled independently, and 50 μl from each was added to cells in duplicate. Control wells received FACS buffer with no antibody. Wells were mixed and incubated for 30 minutes at 4 degrees C. Cells were washed twice in FACS buffer.
(§3) In both blocking experiments, phycoerythrin (PE)-conjugated HLA-G tetramer was diluted in FACS buffer to 5 μg/ml and 100 μl per well was added to cells. Cells were incubated at 4 degrees C. for 30 minutes, washed twice in FACS buffer, and resuspended in 250 μl FACS buffer with 0.1 μg/ml propidium iodide.
(§4) Cells were acquired on an Attune flow cytometer, with 5000 propidium iodide-negative cells collected per sample, and MFI was recorded. Relative blocking activity was calculated with the following formula: 100−(Sample MFI−Background MFI)/(Top MFI−Background MFI)*100. Prism software (Graphpad) was used to plot MFI and relative blocking activity for each sample. The blocking potency for each antibody, represented as IC₅₀, was calculated with Prism software.
For orientation: A flow cytometer gives signals particle by particle.

Test [4] shares this target. The test can be described thus: flow cytometry, blockade of PE-HLA-G tetramer (5 µg/ml) binding to CHO-S/ILT4 cells, experiment 2. Here is the method: as §2, §3, §4
The target is the same in test [5]. The test can be described thus: flow cytometry blocking assay: ILT4-expressing CHO cells preincubated with antibody, then PE-HLA-G; HLA-G binding MFI falls from about 105000 (no antibody) to near 0. Here is the method:
as §2, §3, §4

For test [6] the target is unchanged. Nature of the test: flow based HLA-G blocking assay.
Test [7] concerns the target T2, recombinant human ILT4 (LILRB2). The test can be described thus: KinExA, solution equilibrium, n-curve analysis. Here is the method:
Kinetic Exclusion Assay (KinExA®) was performed to measure the equilibrium binding affinity and kinetics between human ILT4 and four humanized LALA-Fc modified antibodies in solution. For affinity analysis, the equilibrium dissociation constant, KD, was experimentally determined and reflects the strength of the binding interaction. The rate of association, kₒₙ, was also experimentally determined, while the rate of dissociation, koff, is calculated based on the following equation: koff=KD×kₒₙ
The binding affinity (KD), association (kₒₙ), and dissociation rate constants (koff) were measured for 4 different Humanized LALA IgG antibodies to ILT4 using KinExA. An n-curve analysis of at least two different curves, run at two different CBP concentrations, was used to determine the KD of the interactions The ILT4 was used as the concentration reference for all curves. All of the binding systems have low error and well defined 95% confidence intervals giving confidence to the measurements: […]
Background: In KinExA the mixture passes briefly over coated beads that capture the unbound partner.

Test [8] shares this target. The test can be described thus: SPR, high resolution kinetics, triplicate, LALA antibody.
In another test the target is T3, LILRA1 (human, UniProt O75019 17-461).
T3 construct: Bought protein; limits of the extracellular domain are marked by bold type not visible here; whole entry named; also called recombinant human LILRA1
T3 sequence (O75019 other isoform, or with tags, fused parts or gaps): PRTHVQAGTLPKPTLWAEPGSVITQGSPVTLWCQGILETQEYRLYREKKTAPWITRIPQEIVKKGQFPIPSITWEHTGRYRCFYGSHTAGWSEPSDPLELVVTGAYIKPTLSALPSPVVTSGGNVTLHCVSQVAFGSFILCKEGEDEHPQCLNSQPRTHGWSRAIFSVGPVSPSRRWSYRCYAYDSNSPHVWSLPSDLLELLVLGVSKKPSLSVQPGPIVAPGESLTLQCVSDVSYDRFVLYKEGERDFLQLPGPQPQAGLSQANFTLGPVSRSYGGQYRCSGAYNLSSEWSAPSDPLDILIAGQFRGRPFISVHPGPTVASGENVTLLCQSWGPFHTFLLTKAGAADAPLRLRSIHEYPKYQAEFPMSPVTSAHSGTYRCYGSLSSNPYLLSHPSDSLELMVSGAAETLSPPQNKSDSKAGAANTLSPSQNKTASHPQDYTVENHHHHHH
The test can be described thus: SPR, Biacore 8K, mAb captured on anti-human Fc, analyte injected. Here is the method:
(§5) SPR was used to determine the specificity of four humanized anti-ILT4 mAbs for binding to LILRB2 and to determine any cross-reactivity with nine other LILRA and LILRB family members. LILR proteins were purchased from Acro Biosystems or R&D Systems, with sequence provided below. The studies were performed with a Biacore 8K instrument using a CM4 sensor chip with a running buffer of HBS-P+, 100 μg/mL BSA. Anti-human Fc specific capture surfaces were prepared using standard amine coupling chemistry. MAb was captured to flow cell 2 with flow cell 1 serving as the reference flow cell. Each of the nine family members and LILRB2 were injected at 100 nM at 30 μL/min for 90 sec with 240 sec of dissociation. […] All sensorgrams were doubled-referenced during processing of the data.

The target in the next test is T4, LILRA2 (human, UniProt Q8N149 24-449).
T4 construct: Bought protein; limits of the extracellular domain are marked by bold type not visible here; whole entry named; also called recombinant human LILRA2
T4 sequence (Q8N149 other isoform, or with tags, fused parts or gaps): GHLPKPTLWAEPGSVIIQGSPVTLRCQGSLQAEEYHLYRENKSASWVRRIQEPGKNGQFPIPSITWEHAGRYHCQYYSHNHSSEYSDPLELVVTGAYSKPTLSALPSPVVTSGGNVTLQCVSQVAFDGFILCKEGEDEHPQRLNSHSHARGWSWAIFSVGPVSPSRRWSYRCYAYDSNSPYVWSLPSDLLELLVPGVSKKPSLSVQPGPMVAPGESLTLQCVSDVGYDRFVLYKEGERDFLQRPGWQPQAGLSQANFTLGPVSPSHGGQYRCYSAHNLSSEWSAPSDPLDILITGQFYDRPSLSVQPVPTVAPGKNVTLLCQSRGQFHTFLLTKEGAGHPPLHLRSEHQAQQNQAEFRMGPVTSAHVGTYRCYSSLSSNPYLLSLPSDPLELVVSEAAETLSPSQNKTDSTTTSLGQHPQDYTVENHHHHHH
Described as above. Here is the method:
as §5

The target of the next test is T5, LILRA3 (human, UniProt Q8N6C8 24-439).
T5 construct: Bought protein; limits of the part used are marked by bold type not visible here; whole entry named; also called recombinant human LILRA3
T5 sequence (Q8N6C8 24-439 A105V limits assumed): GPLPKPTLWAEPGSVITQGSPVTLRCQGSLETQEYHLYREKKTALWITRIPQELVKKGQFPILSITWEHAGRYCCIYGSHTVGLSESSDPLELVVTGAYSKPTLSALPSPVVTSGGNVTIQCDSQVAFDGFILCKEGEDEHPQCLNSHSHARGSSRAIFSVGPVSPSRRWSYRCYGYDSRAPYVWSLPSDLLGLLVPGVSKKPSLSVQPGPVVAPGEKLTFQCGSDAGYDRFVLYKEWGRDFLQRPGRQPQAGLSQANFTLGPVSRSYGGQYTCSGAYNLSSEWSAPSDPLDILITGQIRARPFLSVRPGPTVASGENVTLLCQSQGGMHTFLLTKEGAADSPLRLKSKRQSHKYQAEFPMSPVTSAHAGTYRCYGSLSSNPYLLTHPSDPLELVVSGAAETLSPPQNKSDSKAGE
The test is described as above. Here is the method: as §5

Another test deals with T6, LILRA4 (human, UniProt P59901 24-446).
T6 construct: Bought protein; limits of the extracellular domain are marked by bold type not visible here; whole entry named; also called recombinant human LILRA4
T6 sequence (P59901 other isoform, or with tags, fused parts or gaps): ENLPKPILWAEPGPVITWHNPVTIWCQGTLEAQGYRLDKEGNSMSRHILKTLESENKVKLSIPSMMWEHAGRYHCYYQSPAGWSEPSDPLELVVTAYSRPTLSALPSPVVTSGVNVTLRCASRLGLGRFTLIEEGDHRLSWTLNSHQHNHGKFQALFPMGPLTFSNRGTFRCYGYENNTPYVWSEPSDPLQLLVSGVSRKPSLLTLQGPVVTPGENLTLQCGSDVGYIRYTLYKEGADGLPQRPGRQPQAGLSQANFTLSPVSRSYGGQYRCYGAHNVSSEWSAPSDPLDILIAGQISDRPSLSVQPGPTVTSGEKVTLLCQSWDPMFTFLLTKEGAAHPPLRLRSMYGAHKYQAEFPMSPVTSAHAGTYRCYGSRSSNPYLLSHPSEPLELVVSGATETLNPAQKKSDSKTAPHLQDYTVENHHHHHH
The test is described as above. The method, then: as §5

For a further test, the target named is T7, LILRA5 (human, UniProt A6NI73 42-268).
T7 construct: Bought protein; limits of the extracellular domain are marked by bold type not visible here; whole entry named; also called recombinant human LILRA5
T7 sequence (A6NI73 other isoform, or with tags, fused parts or gaps): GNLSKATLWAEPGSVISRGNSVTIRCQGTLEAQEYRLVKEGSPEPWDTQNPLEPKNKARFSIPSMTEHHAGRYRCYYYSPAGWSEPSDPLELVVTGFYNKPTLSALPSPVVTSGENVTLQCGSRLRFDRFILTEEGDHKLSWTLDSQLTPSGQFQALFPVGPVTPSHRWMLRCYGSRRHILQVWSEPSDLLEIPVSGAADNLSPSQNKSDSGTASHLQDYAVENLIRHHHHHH
The test is described as above. The method, then:
as §5

The target in another test is T8, LILRA6 (human, UniProt Q6PI73 24-447).
T8 construct: Bought protein; limits of the extracellular domain are marked by bold type not visible here; whole entry named; also called recombinant human LILRA6
T8 sequence (Q6PI73 other isoform, or with tags, fused parts or gaps): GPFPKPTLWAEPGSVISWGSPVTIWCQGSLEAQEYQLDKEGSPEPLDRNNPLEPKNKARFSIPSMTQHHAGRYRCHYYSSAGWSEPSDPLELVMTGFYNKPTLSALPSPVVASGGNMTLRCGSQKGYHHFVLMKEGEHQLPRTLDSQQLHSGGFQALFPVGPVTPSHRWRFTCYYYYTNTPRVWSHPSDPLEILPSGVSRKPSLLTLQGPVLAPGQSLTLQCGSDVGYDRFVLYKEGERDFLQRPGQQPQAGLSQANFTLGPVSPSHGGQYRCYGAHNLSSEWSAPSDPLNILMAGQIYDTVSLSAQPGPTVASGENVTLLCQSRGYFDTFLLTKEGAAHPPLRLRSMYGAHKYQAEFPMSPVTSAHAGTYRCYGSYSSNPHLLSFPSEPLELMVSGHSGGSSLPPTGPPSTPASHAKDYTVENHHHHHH
The description is as above. The method, then:
as §5

The target in a further test is T9, LILRB1 (human, UniProt Q8NHL6 24-461).
T9 construct: Bought protein; limits of the extracellular domain are marked by bold type not visible here; whole entry named; also called recombinant human LILRB1; ILT2
T9 sequence (Q8NHL6 other isoform, or with tags, fused parts or gaps): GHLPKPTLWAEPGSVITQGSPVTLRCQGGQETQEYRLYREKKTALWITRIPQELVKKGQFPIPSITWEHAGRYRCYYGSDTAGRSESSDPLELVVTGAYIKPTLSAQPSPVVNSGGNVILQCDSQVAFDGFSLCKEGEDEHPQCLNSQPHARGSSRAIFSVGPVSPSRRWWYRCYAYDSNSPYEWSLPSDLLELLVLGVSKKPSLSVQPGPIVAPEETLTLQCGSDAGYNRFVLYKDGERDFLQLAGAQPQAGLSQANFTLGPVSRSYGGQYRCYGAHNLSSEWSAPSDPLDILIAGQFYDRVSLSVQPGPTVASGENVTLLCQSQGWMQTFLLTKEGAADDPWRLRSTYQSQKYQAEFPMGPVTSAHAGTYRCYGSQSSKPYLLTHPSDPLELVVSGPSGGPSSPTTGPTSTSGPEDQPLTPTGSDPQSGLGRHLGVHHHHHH
The description is as above. Here is the method:
as §5

The target of a further test is T10, LILRB3 (human, UniProt O75022 24-443).
T10 construct: Bought protein; limits of the extracellular domain are marked by bold type not visible here; whole entry named; also called recombinant human LILRB3; ILT5
T10 sequence (O75022 other isoform, or with tags, fused parts or gaps): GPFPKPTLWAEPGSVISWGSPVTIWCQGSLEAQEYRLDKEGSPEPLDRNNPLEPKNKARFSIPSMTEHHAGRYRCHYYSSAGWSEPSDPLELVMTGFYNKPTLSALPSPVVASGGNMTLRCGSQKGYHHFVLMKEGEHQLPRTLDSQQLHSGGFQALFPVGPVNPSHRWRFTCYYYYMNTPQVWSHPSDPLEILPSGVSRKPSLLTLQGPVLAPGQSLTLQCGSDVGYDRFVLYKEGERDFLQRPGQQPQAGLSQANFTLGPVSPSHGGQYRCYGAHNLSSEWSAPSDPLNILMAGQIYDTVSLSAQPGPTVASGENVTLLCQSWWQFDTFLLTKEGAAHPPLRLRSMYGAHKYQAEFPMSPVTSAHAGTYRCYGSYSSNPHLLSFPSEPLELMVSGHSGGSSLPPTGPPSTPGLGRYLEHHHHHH
Described as above. The method, then:
as §5

The target of a further test is T11, LILRB4 (human, UniProt Q8NHJ6 22-259).
T11 construct: Bought protein; limits of the extracellular domain are marked by bold type not visible here; whole entry named; also called recombinant human LILRB4; ILT3
T11 sequence (Q8NHJ6 other isoform, or with tags, fused parts or gaps): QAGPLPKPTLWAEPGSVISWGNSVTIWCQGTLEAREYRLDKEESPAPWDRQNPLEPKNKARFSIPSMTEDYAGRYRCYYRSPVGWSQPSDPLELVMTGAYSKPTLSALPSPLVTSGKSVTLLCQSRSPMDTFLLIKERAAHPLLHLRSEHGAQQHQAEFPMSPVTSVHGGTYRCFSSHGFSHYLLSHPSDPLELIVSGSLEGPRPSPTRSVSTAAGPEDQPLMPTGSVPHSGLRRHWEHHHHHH
The test is described as above. The method, then: as §5

The target of test [9] is T2, recombinant human ILT4 (LILRB2). The test can be described thus: SPR, Biacore T200, medium resolution; koff held at its limit of 4.27e-5 s^-1. The method, then: as §1
The target is the same in test [10]. The test can be described thus: SPR, high resolution kinetics, triplicate, LALA antibody; 95% CI in parentheses.
Test [11] shares this target. Nature of the test: SPR, Biacore 8K, mAb captured on anti-human Fc, LILRB2 at 100 nM; legend: ++++ tight binding (<100 pM KD). Here is the method: as §5

In general, Kd refers to the constant that tells how readily two partners part at equilibrium. As usually defined, the koff is the first-order rate constant of dissociation. The kon is the rate constant with which the complex forms. A word on the IC50: it is the concentration at which inhibition is half-maximal. A low value points to inhibition by little substance. Usually KD stands for the free concentration of one partner at which half of the binding sites on the other are occupied at equilibrium, for simple one-to-one binding.

T1 sequence (Q8N423 22-597): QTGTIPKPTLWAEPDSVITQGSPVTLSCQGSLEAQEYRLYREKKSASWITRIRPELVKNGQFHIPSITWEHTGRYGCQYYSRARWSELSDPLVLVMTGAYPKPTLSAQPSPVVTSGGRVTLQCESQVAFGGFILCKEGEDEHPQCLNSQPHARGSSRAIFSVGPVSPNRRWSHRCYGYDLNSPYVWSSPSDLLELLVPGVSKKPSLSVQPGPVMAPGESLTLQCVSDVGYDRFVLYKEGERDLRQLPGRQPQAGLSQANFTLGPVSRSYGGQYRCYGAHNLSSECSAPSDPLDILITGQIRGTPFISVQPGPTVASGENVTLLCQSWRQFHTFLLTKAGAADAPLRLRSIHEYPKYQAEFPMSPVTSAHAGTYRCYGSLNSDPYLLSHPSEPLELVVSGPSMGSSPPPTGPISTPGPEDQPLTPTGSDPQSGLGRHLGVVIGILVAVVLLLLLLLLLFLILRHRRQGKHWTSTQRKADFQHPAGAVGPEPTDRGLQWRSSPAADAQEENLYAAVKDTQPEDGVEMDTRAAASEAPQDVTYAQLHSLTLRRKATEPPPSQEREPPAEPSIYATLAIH
T2 sequence (Q8N423 other isoform, or with tags, fused parts or gaps limits assumed): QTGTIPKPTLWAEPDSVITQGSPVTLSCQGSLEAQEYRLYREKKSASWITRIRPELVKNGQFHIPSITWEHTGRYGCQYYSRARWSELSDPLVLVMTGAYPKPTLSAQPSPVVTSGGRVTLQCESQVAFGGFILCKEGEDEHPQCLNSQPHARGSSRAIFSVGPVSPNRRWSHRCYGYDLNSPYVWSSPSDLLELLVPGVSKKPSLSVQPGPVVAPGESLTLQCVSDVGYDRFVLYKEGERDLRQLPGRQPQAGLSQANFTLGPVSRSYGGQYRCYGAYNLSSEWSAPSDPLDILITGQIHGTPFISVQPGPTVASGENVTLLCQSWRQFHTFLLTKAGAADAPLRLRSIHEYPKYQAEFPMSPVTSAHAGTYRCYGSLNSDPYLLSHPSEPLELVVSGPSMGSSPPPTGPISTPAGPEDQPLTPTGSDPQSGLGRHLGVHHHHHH

B1: L45S4 (antibody, IgG2a, V domains shown)
VH: EVQLQQSGPELVKPGASVKISCKASGYTFTDYYMNWVKQSHGKSLEWIGDINPNNGGTSYNQKFKGKATLTVDKSSSTAYMELRSLTSEDSAVYYCARGGAELTGTYWYFDVWGTGTTVTVSS
VL: DIQMTQSPASLSISVGETVTITCRASENIYSNLAWYQQKQGKSPQVLVYGATNLADGVPSRFSGSGSGTQYSLKIKSLQSEDFGSYYCQHFWDSPFTFGSGTKLEIK
notes: also called Murine 45; mouse anti-human ILT4 antibody L45S4
As for B1, the “IL-6 secretion by LPS-stimulated M2 macrophages (MSD), fold over control” value in test [1] was 2 fold. Also, in [2], the Kd is 0.21 nM, the off-rate (koff) came out at 8.4e-05 s⁻¹ and the kon amounted to 401000 M⁻¹ s⁻¹. In [3], the “fold decrease of PE-HLA-G MFI” value was not above 69 fold. The molecule further yielded an IC50 in [4] of 0.044 µg/mL. In test [5], the 50% inhibitory concentration (IC50) worked out at 0.071 µg/mL.

B2: Hz77-LALA (antibody, human IgG1, kappa, L234A L235A, V domains shown)
VH: QVQLVQSGAEVKKPGSSVKVSCKASGYSFTGYSVNWVRQAPGQGLEWIGRINPYNGDIFNNQKFKGRATITVDKSTSTAYMELSSLRSEDTAVYYCARGTTVGGAWFAYWGQGTLVTVSS
VL: DIVMTQSPDSLAVSLGERATINCRASESVDSYGYSFLHWYQQKPGQPPKLLIYLASNLESGIPDRFSGSGSGTDFTLTISSLQAEDVAVYYCQQSNEDLMYTFGGGTKVEIKR
notes: Humanized L77S2, human IgG1 L234A/L235A, kappa; also called Humanized 77_01; Hz 77 01
B2 registered an IC50 in [6] of 0.176 µg/mL. In addition, the equilibrium dissociation constant (Kd) in test [7] was 5.46 pM; in test [8], 8.9 pM; in test [9], not above 0.052 nM. Besides, the koff is 4.24e-05 s⁻¹ in [8] and not above 4.27e-05 s⁻¹ in test [9]. In addition, the binding result with LILRA1, in the test with LILRA2, in the test with LILRA3, in the test with LILRA4, in the test with LILRA5 and with LILRA6 was “no binding (tested: 100 nM)” each time. Also, the binding result in the test with LILRB1, with LILRB3 and with LILRB4 was “no binding (tested: 100 nM)” in each case. For the same molecule, the on-rate constant (kon) in test [10] is 4.78e+06 M⁻¹ s⁻¹; in test [2] it was 835000 M⁻¹ s⁻¹. For the same molecule, the KD in test [11] is less than 0.1 nM.

B3: L41S5 (antibody, IgG2a, V domains shown)
VH: QVQLQQSGAELVKPGASVKISCKASGYAFSSYWMNWVKQRPGKGLEWIGQIYPGHGDTNYNGKFKGKATLTADKSSSTAYMQLSSLTSEDSAVYFCAKEGSELGRLFAYWGQGTLVTVSA
VL: QIVLTQSPALMSASPGEKVTMTCSASSSVSFMYWYQQKPRSSPKPWIYLTSNLASGVPARFSGSGSGTSYSLTISSMEAEDAATYYCQQWSSNPPTFGGGTKLEIK
notes: also called mouse anti-human ILT4 antibody L41S5
For the molecule B3, in test [3], the “fold decrease of PE-HLA-G MFI” value is not above 14 fold. Further, in test [4], the 50% inhibitory concentration (IC50) was 0.134 µg/mL.
